From patent US20180155451A1 (published 2018) come the findings set out here.

First the molecules themselves.
T1: FcγRIIb extracellular domain with C-terminal His tag (human, UniProt P31994 43-217)
T1 construct: extracellular domain; Soluble receptor expressed in FreeStyle293 cells, used as analyte in Biacore; also called FcgRIIb; 2b; not shown: His tag at the C terminus
T1 sequence (looked up): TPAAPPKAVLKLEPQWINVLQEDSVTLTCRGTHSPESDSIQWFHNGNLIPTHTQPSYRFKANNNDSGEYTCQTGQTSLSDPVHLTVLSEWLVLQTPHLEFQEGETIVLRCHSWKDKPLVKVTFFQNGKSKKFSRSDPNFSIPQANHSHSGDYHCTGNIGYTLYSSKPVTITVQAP

T2: FcγRIIb (human, UniProt P31994 43-217)
T2 construct: extracellular domain; also called FcgRIIb; 2b; not shown: His tag at the C terminus
T2 sequence (looked up): T1 sequence (looked up)

B1: GpH7-A5/GpH7-B3 variant P331_11K/GpL16-k0 (antibody, human IgG1, kappa)
heavy 1: not shown
heavy 2: not shown
light: DIVMTQSPLSLPVTPGEPASISCQASESLVHSNRNTYLHWYLQKPGQSPQLLIYKVSNRFSGVPDRFSGSGSGTDFTLKISRVEAEDVGVYYCSQNTHVPPTFGQGTKVEIERTVAAPSVFIFPPSDEQLKSGTASVVCLLNNFYPREAKVQWKVDNALQSGNSQESVTEQDSKDSTYSLSSTLTLSKADYEKHKVYACEVTHQGLSSPVTKSFNRGEC
notes: Heterodimerized anti-glypican-3 IgG1; P331K (EU) only in the GpH7-B3 chain; also called He Ab
B2: GpH7-A5/GpH7-B3 variant A327_09D/GpL16-k0 (antibody, human IgG1, kappa)
heavy 1: not shown
heavy 2: not shown
light: B1 light
notes: heterodimerized IgG1; alteration in the GpH7-B3 H chain only; also called He Ab
B3: GpH7-A5/GpH7-B3 variant N325_13S/GpL16-k0 (antibody, human IgG1, kappa)
heavy 1: not shown
heavy 2: not shown
light: B1 light
notes: as for B2
B4: GpH7-A5/GpH7-B3 variant I332_09D/GpL16-k0 (antibody, human IgG1, kappa)
heavy 1: not shown
heavy 2: not shown
light: B1 light
notes: as for B2
B5: GpH7-A5/GpH7-B3 variant P331_16H/GpL16-k0 (antibody, human IgG1, kappa)
heavy 1: not shown
heavy 2: not shown
light: B1 light
notes: as for B2
B6: GpH7-A5/GpH7-B3 variant A327_10E/GpL16-k0 (antibody, human IgG1, kappa)
heavy 1: not shown
heavy 2: not shown
light: B1 light
notes: as for B2
B7: GpH7-A5/GpH7-B3 variant L328_02A/GpL16-k0 (antibody, human IgG1, kappa)
heavy 1: not shown
heavy 2: not shown
light: B1 light
notes: as for B2
B8: GpH7-A5/GpH7-B3 variant N325_08L/GpL16-k0 (antibody, human IgG1, kappa)
heavy 1: not shown
heavy 2: not shown
light: B1 light
notes: as for B2
B9: GpH7-A5/GpH7-B3 variant L328_13S/GpL16-k0 (antibody, human IgG1, kappa)
heavy 1: not shown
heavy 2: not shown
light: B1 light
notes: as for B2
B10: GpH7-A5/GpH7-B3 variant N325_07I/GpL16-k0 (antibody, human IgG1, kappa)
heavy 1: not shown
heavy 2: not shown
light: B1 light
notes: as for B2
B11: GpH7-A5/GpH7-B3 variant L328_20W/GpL16-k0 (antibody, human IgG1, kappa)
heavy 1: not shown
heavy 2: not shown
light: B1 light
notes: as for B2
B12: GpH7-A5/GpH7-B3 variant L328_07I/GpL16-k0 (antibody, human IgG1, kappa)
heavy 1: not shown
heavy 2: not shown
light: B1 light
notes: as for B2
B13: GpH7-A5/GpH7-B3 variant L328_09D/GpL16-k0 (antibody, human IgG1, kappa)
heavy 1: not shown
heavy 2: not shown
light: B1 light
notes: as for B2
B14: GpH7-A5/GpH7-B3 variant L328_14T/GpL16-k0 (antibody, human IgG1, kappa)
heavy 1: not shown
heavy 2: not shown
light: B1 light
notes: as for B2
B15: GpH7-A5/GpH7-B3 variant A330_05P/GpL16-k0 (antibody, human IgG1, kappa)
heavy 1: not shown
heavy 2: not shown
light: B1 light
notes: as for B2
B16: GpH7-A5/GpH7-B3 variant N325_06M/GpL16-k0 (antibody, human IgG1, kappa)
heavy 1: not shown
heavy 2: not shown
light: B1 light
notes: as for B2
B17: GpH7-A5/GpH7-B3 variant N325_04F/GpL16-k0 (antibody, human IgG1, kappa)
heavy 1: not shown
heavy 2: not shown
light: B1 light
notes: as for B2
B18: GpH7-A5/GpH7-B3 variant L328_04F/GpL16-k0 (antibody, human IgG1, kappa)
heavy 1: not shown
heavy 2: not shown
light: B1 light
notes: as for B2
B19: GpH7-A5/GpH7-B3 variant L328_15Y/GpL16-k0 (antibody, human IgG1, kappa)
heavy 1: not shown
heavy 2: not shown
light: B1 light
notes: as for B2
B20: GpH7-A5/GpH7-B3 variant L328_06M/GpL16-k0 (antibody, human IgG1, kappa)
heavy 1: not shown
heavy 2: not shown
light: B1 light
notes: as for B2
B21: GpH7-A5/GpH7-B3 variant L328_10E/GpL16-k0 (antibody, human IgG1, kappa)
heavy 1: not shown
heavy 2: not shown
light: B1 light
notes: as for B2
B22: GpH7-A5/GpH7-B3 variant I332_10E/GpL16-k0 (antibody, human IgG1, kappa)
heavy 1: not shown
heavy 2: not shown
light: B1 light
notes: as for B2
B23: GpH7-A5/GpH7-B3 variant P331_03V/GpL16-k0 (antibody, human IgG1, kappa)
heavy 1: not shown
heavy 2: not shown
light: B1 light
notes: as for B2
B24: GpH7-A5/GpH7-B3 variant N325_20W/GpL16-k0 (antibody, human IgG1, kappa)
heavy 1: not shown
heavy 2: not shown
light: B1 light
notes: as for B2

T4 sequence (P12314 16-292): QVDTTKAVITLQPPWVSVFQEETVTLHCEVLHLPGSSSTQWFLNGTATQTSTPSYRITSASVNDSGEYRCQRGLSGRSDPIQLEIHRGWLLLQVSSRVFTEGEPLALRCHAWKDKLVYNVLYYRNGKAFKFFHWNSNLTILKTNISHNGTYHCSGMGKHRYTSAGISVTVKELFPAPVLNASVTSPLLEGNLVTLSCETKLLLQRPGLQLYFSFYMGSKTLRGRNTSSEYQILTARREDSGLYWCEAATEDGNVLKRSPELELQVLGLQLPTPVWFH

The first assay deals with T3, FcγRIIIa extracellular domain with C-terminal His tag (human, UniProt P08637 17-208).
T3 construct: extracellular domain; also called FcgRIIIa; 3a; not shown: His tag at the C terminus
T3 sequence (P08637 17-208): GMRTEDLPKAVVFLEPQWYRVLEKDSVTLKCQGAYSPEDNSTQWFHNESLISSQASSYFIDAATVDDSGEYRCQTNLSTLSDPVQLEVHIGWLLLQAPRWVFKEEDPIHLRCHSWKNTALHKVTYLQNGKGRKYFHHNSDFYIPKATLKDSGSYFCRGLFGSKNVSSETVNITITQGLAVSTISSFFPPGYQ
As to the kind of experiment: SPR (Biacore), antibody captured on antigen peptide chip, FcγR as analyte. As to the method: (§1) Analysis of interaction between objective antibody and the FcγR was carried out using Biacore T100 (GE Healthcare). HBS-EP+ (GE Healthcare) was used as the running buffer, and the measurement temperature was set to 25° C. Chips produced by immobilizing the antigen peptide by the amine coupling method to a Series S Sencor Chip CM5 (GE Healthcare), or alternatively, chips produced by allowing preliminarily biotinylated antigen peptides to interact with and immobilize onto a Series S Sensor Chip SA (certified) (GE Healthcare) were used. Antibodies of interest were captured onto an antigen peptide-immobilized chip, and allowed to interact to each FcγR diluted with running buffer. To regenerate and repeatedly use the chip, the antibodies captured on the chip were washed off by reacting 10 mM glycine-HCl, pH 1.5.
(§2) The FcγR-binding activity of each antibody was assessed primarily using as an indicator the FcγR-binding activity and dissociation constant for FcγR.
(In SPR one partner is held on a chip, and binding of the other changes the refractive index at the surface.)
For the molecule B1, the He/Con_3a is 67.5 relative binding (GpH7-A5/GpH7-B3/GpL16-k0 = 100).

For another assay, the target named is T1, FcγRIIb extracellular domain with …. Described as above. The protocol:
as §1, §2
As to B1, the He/Con_2b is 84.7 relative binding (GpH7-A5/GpH7-B3/GpL16-k0 = 100).

Another assay has as its target T2, FcγRIIb. As to the kind of experiment: SPR (Biacore), antibody captured, FcγR as analyte; binding as % of GpH7-A5/GpH7-B3/GpL16-k0.
With B2, the He/Con_2b was 172 % of control.
Regarding B3, the He/Con_2b is 177 % of control.
The same measure, in the same setting: the value for B4 was 147 % of control; that for B5 was 116 % of control; that for B6 was 140 % of control.
Still for that read-out and setting: to B7 belongs 144 % of control; to B8, 197 % of control.
For the molecule B9, the He/Con_2b is 149 % of control.
B10: the He/Con_2b was 171 % of control.
Still for that read-out and setting: to B11 belongs 235 % of control; to B12, 160 % of control.
Same read-out and setting: the value for B13 was 199 % of control.
Same read-out and setting: the value for B14 was 141 % of control; that for B15 was 137 % of control; that for B16 was 217 % of control.
As to B17, the He/Con_2b is 143 % of control.
Still for that read-out and setting: the value for B18 was 219 % of control; that for B19 was 193 % of control.
The same measure, in the same setting: the value for B20 was 142 % of control.
Still for that read-out and setting: the value for B21 was 172 % of control.
For B22, the He/Con_2b is 142 % of control.
On the same count and under the same terms, the value for B23 was 119 % of control; that for B24 was 169 % of control.

A further assay addresses T4, FcγRIa (human, UniProt P12314 16-292).
T4 construct: extracellular domain; also called FcgRI; 1a; not shown: His tag at the C terminus
The description is as above.
On to B2, for which the He/Con_1a is 103 % of control.
On the same count and under the same terms, the value for B3 was 96.8 % of control.
Still for that read-out and setting: to B4 belongs 93.4 % of control.
Still for that read-out and setting: the value for B5 was 92.4 % of control; that for B6 was 103 % of control; that for B7 was 98.5 % of control.
As for B8, the He/Con_1a was 97.5 % of control.
In the case of B9, the He/Con_1a is 99 % of control.
Turning to B10, the He/Con_1a is 94.8 % of control.
On the same count and under the same terms, to B11 belongs 103 % of control; to B12, 99.4 % of control.
On the same count and under the same terms, to B13 belongs 102 % of control; to B14, 100 % of control; to B15, 101 % of control.
On the same count and under the same terms, to B16 belongs 97.6 % of control.
Consider B17, for which the He/Con_1a was 93.2 % of control.
Same read-out and setting: the value for B18 was 97.9 % of control; that for B19 was 102 % of control; that for B20 was 98.7 % of control.
Regarding B21, the He/Con_1a was 101 % of control.
B22: the He/Con_1a was 96.3 % of control.
The same measure, in the same setting: the value for B23 was 92 % of control; that for B24 was 93.8 % of control.

The next assay has as its target T2, FcγRIIb. Described as above. This is another data set of the same source.
B3: the He/Con_2b was 177 % of control.
On the same count and under the same terms, to B7 belongs 144 % of control; to B9, 149 % of control; to B12, 160 % of control.
Same read-out and setting: the value for B18 was 219 % of control.
Same read-out and setting: to B20 belongs 142 % of control.
Take B23: the He/Con_2b is 119 % of control.
The same measure, in the same setting: the value for B24 was 169 % of control.

Another assay deals with T4, FcγRIa. Described as above. This is another data set of the same source.
For B3, the He/Con_1a was 96.8 % of control.
On the same count and under the same terms, the value for B7 was 98.5 % of control.
The same measure, in the same setting: to B9 belongs 99 % of control; to B12, 99.4 % of control.
On the same count and under the same terms, to B18 belongs 97.9 % of control.
For B20, the He/Con_1a is 98.7 % of control.
Take B23: the He/Con_1a was 92 % of control.
The same measure, in the same setting: the value for B24 was 93.8 % of control.

The target in a further assay is T4, FcγRIa. As to the kind of experiment: SPR (Biacore); He/Con_1a (FcγRIa) divided by He/Con_2b (FcγRIIb).
In the case of B2, the “Ia/IIb He_1a/2b” value worked out at 0.6 ratio.
Same read-out and setting: to B3 belongs 0.55 ratio.
Still for that read-out and setting: to B4 belongs 0.64 ratio; to B5, 0.8 ratio.
On the same count and under the same terms, the value for B6 was 0.74 ratio; that for B7 was 0.68 ratio.
In the case of B8, the “Ia/IIb He_1a/2b” value amounted to 0.5 ratio.
Same read-out and setting: to B9 belongs 0.66 ratio; to B10, 0.55 ratio; to B11, 0.44 ratio.
On the same count and under the same terms, to B12 belongs 0.62 ratio.
Same read-out and setting: the value for B13 was 0.51 ratio.
In the case of B14, the “Ia/IIb He_1a/2b” value is 0.71 ratio.
As to B15, the “Ia/IIb He_1a/2b” value turned out to be 0.74 ratio.
The same measure, in the same setting: to B16 belongs 0.45 ratio; to B17, 0.65 ratio.
Still for that read-out and setting: to B18 belongs 0.45 ratio.
Same read-out and setting: to B19 belongs 0.53 ratio.
On to B20, for which the “Ia/IIb He_1a/2b” value was determined as 0.7 ratio.
For B21, the “Ia/IIb He_1a/2b” value amounted to 0.59 ratio.
Same read-out and setting: the value for B22 was 0.68 ratio; that for B23 was 0.78 ratio; that for B24 was 0.56 ratio.

Another assay has as its target T3, FcγRIIIa extracellular domain with …. Briefly: SPR; He/Con_3a divided by He/Con_2b (FcγRIIIa over FcγRIIb). The protocol: as §1, §2
Consider B1, for which the “He_3a/2b (IIIa/IIb)” value was found to be 0.8 ratio.
